For this data set, the system named is Bevacizumab (Avastin; anti-VEGF humanized monoclonal antibody) (Homo sapiens (humanized antibody)?). To be noted: quartz crystal microbalance (AFFINIX Q8), velocity analysis; Bevacizumab immobilized on sensor; phosphate buffer (DPBS); aptamer 1.48-2.91 uM; sequence ….

This is an account of results in US20190284560.

The term Kd denotes the concentration at which binding is half-saturated. Lower therefore signals higher affinity.

Regarding “CCGTGTGGTGGGGGTTGGGGGTTGTCGTTCGCCG [Bevacizumab DNA aptamer SEQ ID NO: 1]”, the Kd was found to be 9.1 µM.
